Assay results as given in article PMC4159696.

Experiments:
[1] = biological target: NapD with an N-terminal hexa His-tag (NapD^NHis) (Escherichia coli) (UniProt P0A9I5); experiment: AUC; sedimentation equilibrium, 4 °C, about 100 kDa complex (fraction 80 of SEC), 0.5 to 1.0 mg/mL, interference and absorbance optics at 260, 280 and 300 nm
[2] = biological target: NapD with an N-terminal hexa His-tag (NapD^NHis) (Escherichia coli) (UniProt P0A9I5); experiment: SAXS; purified NapD^NHis/NapA complex, P12 BioSAXS beamline (PETRA III), 7 °C

Sequence of UniProt P0A9I5 (P0A9I5 whole entry): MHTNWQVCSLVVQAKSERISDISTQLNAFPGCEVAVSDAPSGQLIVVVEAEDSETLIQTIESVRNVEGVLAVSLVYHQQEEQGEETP

stoichiometry N [1]: 1
stoichiometry N [2]: 1
Substance: full-length NapA precursor protein (from UniProt P33937 37-828) (natural protein)
